Test results as given in publication PMC3139646, “Synthesis and Investigation of a Radioiodinated F3 Peptide Analog as a SPECT Tumor Imaging Radioligand” (PLoS ONE, 2011).

How the values were obtained:
[1] = system: MDA-MB-435 tumor xenografts; assay type: in vivo, mouse
Method: At 4 h, kidney and bladder were not visualized likely due to voiding of urine. It is possible that the presence of urine radioactivity in kidney and bladder, at the early time intervals, could have contributed to an overestimation of tissue radioactivity uptake in these organs in the images. […] Intestinal radioactivity was clearly apparent in the 4 h images, which is most likely due to a shift in radioactivity clearance from the renal to hepatobiliary excretion pathway at later time intervals.
Mouse SPECT/CT imaging studies were performed on a GMI Tri-Modality CT/PET/SPECT small animal scanner (Gamma-Medica Ideas, Inc., Northridge, CA). SPECT images were acquired using a dual-head, high-resolution, low-energy parallel-hole collimator. CT imaging of animals was performed for anatomical co-registration and CT fusion of SPECT images were performed using AMIRA (version 3.1) software (Visage Imaging, San Diego, CA USA). Imaging was performed when tumors reached a 60–100 mm^3 average volume.

[2] = Storage stability of formulated radioligand (radio-HPLC); assay type: physicochemical; conditions: formulated in PBS:EtOH [95:5], stored at 5°C, radio-HPLC analysis
Method: The 3-(tri-n-butylstannyl)[…] analog 8 was obtained from the N-succinimidyl-3-(tri-n-butylstannyl)benzoate analog 7 using the approach described for the synthesis of 5 (Scheme A). […] The radioiodinated product was well resolved from the tri-n-butylstannyl starting material (Rt>25 min) under the HPLC conditions. […] The radioligand which was formulated in PBS∶EtOH [95∶5] was stable for at least 1 week when stored at 5°C (<2% radiolytic decomposition by radio-HPLC analysis).

[3] = system: tumor-bearing athymic nude mice; conditions: mouse, in vivo, iv
From the text: The remaining radioactivity consisted primarily of two hydrophobic radiometabolites representing 47% and 18% of the total plasma radioactivity. […] In contrast, the parent radioligand accounted for 42% of the total radioactivity present in mouse urine samples at this time interval. The remaining radioactivity consisted of three major hydrophobic radiometabolites representing 28%, 6.8% and 10% of the total. […] This is possibly due to its high in vivo tumor affinity which results in its rapid sequestration and retention within the tumor cells in a nucleolin dependent manner.
Blood and urine samples were collected, centrifuged at 12,000 rpm for 15 min, and the supernatants transferred to a fresh centrifuge tube and the centrifugation repeated. The supernatants were treated with CH3CN and centrifuged again to precipitate proteins and the clear supernatants analyzed by radio-HPLC (Method I).

[4] = system: MDA-MB-435 tumor-bearing athymic nude mice; conditions: mouse, in vivo, iv
Method: Kidney uptake of radioactivity (5.68%ID/g and 10.8% ID/g at 5 and 30 min respectively post-injection) was the highest among all sampled tissues confirming that renal elimination is the major excretory pathway for the radioligand (Table S1). In tumors, radioactivity levels peaked at 30 min post-injection (1.05% ID/g).
(A) Tissue distribution at 60 min post injection and reported as percent injected dose per gram of tissue (%ID/g). (B) and (C) represent the ratio of radioactivity in tumor to blood and tumor to muscle respectively at various time intervals. All the data are computed as mean +/− SEM.
Female CD-1 nude mice (nu/nu, 25–28 g) bearing MDA-MB-435 mammary fat pad tumor xenografts on opposite sides were utilized for the biodistribution studies. Four animals (N = 4) were used per time point. […] Selected tissues (blood, heart, liver, lung, spleen, adrenals, tumor, kidney, muscle, whole brain and thyroid) were harvested and tissue samples were assayed for activity using a Gamma Counter. Tissue uptake was computed as % injected dose/gram (%ID/g).
All the data are computed as mean +/− SEM. (DOCX) Click here for additional data file.

## N-(2-{3-[^125I]Iodobenzoyl}aminoethyl)maleimide-F3Cys peptide [[^125I]IBMF3]
[1]; 15 min post-injection, i.v. 570–610 µCi, MDA-MB-435 xenografts
  Tumor uptake in SPECT images, early: distinct uptake of radioactivity in tumor as early as 15 min post-injection
[1]; 4 h post-injection, i.v. 570–610 µCi, MDA-MB-435 xenografts
  Tumor visualization in SPECT images at 4 h: visualized in the SPECT images at 4 h although at lower levels
[1]; >4 h post-injection, i.v., MDA-MB-435 xenografts
  Tumor radioactivity in SPECT images at later time intervals: substantial clearance at later time intervals
[1]; mouse, in vivo, iv
  Thyroid uptake in SPECT images (in vivo deiodination): Moderate radioactivity uptake was seen in thyroid
[2]; 1 week
  Radiolytic decomposition on storage: < 2%
[2]
  Time stable on storage: at least 1 week
[3]
  Hydrophobic radiometabolite (first named), share of total plasma radioactivity: 47%
  Hydrophobic radiometabolite (first named), share of total urine radioactivity: 28%
  Hydrophobic radiometabolite (second named), share of total plasma radioactivity: 18%
  Hydrophobic radiometabolite (second named), share of total urine radioactivity: 6.8%
  Hydrophobic radiometabolite (third named), share of total urine radioactivity: 10%
  Parent radioligand, share of total urine radioactivity: 42%
[4]
  Extraction into brain: 0.03 %ID/g
  Radioactivity clearance from blood: > 60%
  Tumor-to-blood ratio: 2.1
  Tumor-to-muscle ratio: 4.3
